# Positions count from the first letter of the chain named. Names and notes keep the numbering of the source.
# B1: Elongin C internal deletion mutant C(Δ31-40) (other)
# chain: MDGEEKTYGGCEGPDAMYVKLISSDGHEFITIKAMLSGPGQFAENETNEVNFREIPSHVLSKVCMYFTYKVRYTNSSTEIPEFPIAPEIALELLMAANFLDC
# B2: Elongin C internal deletion mutant C(Δ41-50) (other)
# chain: B1 chain with T31V, I32K, K33R, A34E, M35H, L36A, S37L, G38T, P39S
# B3: Elongin C deletion mutant C(1-97) (other)
# chain: MDGEEKTYGGCEGPDAMYVKLISSDGHEFIVKREHALTSGTIKAMLSGPGQFAENETNEVNFREIPSHVLSKVCMYFTYKVRYTNSSTEIPEFPIAP
# B4: Elongin C deletion mutant C(1-83) (other)
# chain: MDGEEKTYGGCEGPDAMYVKLISSDGHEFIVKREHALTSGTIKAMLSGPGQFAENETNEVNFREIPSHVLSKVCMYFTYKVRY
# B5: Elongin C deletion mutant C(19-112) (other)
# chain: VKLISSDGHEFIVKREHALTSGTIKAMLSGPGQFAENETNEVNFREIPSHVLSKVCMYFTYKVRYTNSSTEIPEFPIAPEIALELLMAANFLDC
# B6: Elongin C deletion mutant C(15-112) (other)
# chain: DAMYVKLISSDGHEFIVKREHALTSGTIKAMLSGPGQFAENETNEVNFREIPSHVLSKVCMYFTYKVRYTNSSTEIPEFPIAPEIALELLMAANFLDC
# B7: Elongin A internal deletion mutant Δ481-520 (other)
# chain: MAAESALQVVEKLQARLAANPDPKKLLKYLKKLSVLPITVDILVETGVGKTVNSFRKHEQVGNFARDLVAQWKKLVPVERNNEAEDQDFEKSNSRKRPRDVPQQEEEAEGNYQESWQASGSQPYSPEHRQKKHRKLPELERPHKVAHGHERRDERKRCHKVSPPYSSDPESSDYGHVQSPPPSSPHQMYTDLSRSPEMDQEPIVSHPKPGKVHSNTFQDRLGVSHLGEHQGKGAVSQNKPHKSSHKEKRPVDARGDEKSSVMGREKSHKASSKEESRRLLSEDSAKEKLPSSVVKKEKDREGNSLKKKLSPALDVASDNHFKKPKHKDSEKIKSDKNKQSVDSVDSGRGTGDPLPRAKDKVPNNLKAQEGKVRTNSDRKSPGSLPKVEEMDMDDEFEQPTMSFESYLSYDQPRKKKKKVVKTSGTALGEKGLKKKDSKSTSKNLNSAQKLPKANENKSDKLQPAGAEPTRPRKVPTDVLPEAGFTGRRMNSKMQVYSGSKCAYLPKMMTLHQQCIRVLKNNIDSIFEVGGVPYSVLEPVLERCTPDQLYRIEECNHVLIEETDQLWKVHCHRDFKEERPEEYESWREMYLRLQDAREQRLRLLTNNIRSAHANKPKGRQAKMAFVNSVAKPPRDVRRRQEKFGTGGAAVPEKVRIKPAPYTTGSSHVPASNSSSSFHSSPEELAYEGPSTSSAHLAPVASSSVSYDPRKPAVKKIAPMMAKTIKAFKNRFSRR
# B8: Elongin A deletion mutant A(1-535) (other)
# chain: MAAESALQVVEKLQARLAANPDPKKLLKYLKKLSVLPITVDILVETGVGKTVNSFRKHEQVGNFARDLVAQWKKLVPVERNNEAEDQDFEKSNSRKRPRDVPQQEEEAEGNYQESWQASGSQPYSPEHRQKKHRKLPELERPHKVAHGHERRDERKRCHKVSPPYSSDPESSDYGHVQSPPPSSPHQMYTDLSRSPEMDQEPIVSHPKPGKVHSNTFQDRLGVSHLGEHQGKGAVSQNKPHKSSHKEKRPVDARGDEKSSVMGREKSHKASSKEESRRLLSEDSAKEKLPSSVVKKEKDREGNSLKKKLSPALDVASDNHFKKPKHKDSEKIKSDKNKQSVDSVDSGRGTGDPLPRAKDKVPNNLKAQEGKVRTNSDRKSPGSLPKVEEMDMDDEFEQPTMSFESYLSYDQPRKKKKKVVKTSGTALGEKGLKKKDSKSTSKNLNSAQKLPKANENKSDKLQPAGAEPTRPRKVPTDVLPALPDIPLPAIQTNYRPLPSLELISSFQPKRKAFSSPQEEEEAGFTGRRMNSKMQV
# B9: Elongin A point mutant L550S (other)
# chain: MAAESALQVVEKLQARLAANPDPKKLLKYLKKLSVLPITVDILVETGVGKTVNSFRKHEQVGNFARDLVAQWKKLVPVERNNEAEDQDFEKSNSRKRPRDVPQQEEEAEGNYQESWQASGSQPYSPEHRQKKHRKLPELERPHKVAHGHERRDERKRCHKVSPPYSSDPESSDYGHVQSPPPSSPHQMYTDLSRSPEMDQEPIVSHPKPGKVHSNTFQDRLGVSHLGEHQGKGAVSQNKPHKSSHKEKRPVDARGDEKSSVMGREKSHKASSKEESRRLLSEDSAKEKLPSSVVKKEKDREGNSLKKKLSPALDVASDNHFKKPKHKDSEKIKSDKNKQSVDSVDSGRGTGDPLPRAKDKVPNNLKAQEGKVRTNSDRKSPGSLPKVEEMDMDDEFEQPTMSFESYLSYDQPRKKKKKVVKTSGTALGEKGLKKKDSKSTSKNLNSAQKLPKANENKSDKLQPAGAEPTRPRKVPTDVLPALPDIPLPAIQTNYRPLPSLELISSFQPKRKAFSSPQEEEEAGFTGRRMNSKMQVYSGSKCAYLPKMMTSHQQCIRVLKNNIDSIFEVGGVPYSVLEPVLERCTPDQLYRIEECNHVLIEETDQLWKVHCHRDFKEERPEEYESWREMYLRLQDAREQRLRLLTNNIRSAHANKPKGRQAKMAFVNSVAKPPRDVRRRQEKFGTGGAAVPEKVRIKPAPYTTGSSHVPASNSSSSFHSSPEELAYEGPSTSSAHLAPVASSSVSYDPRKPAVKKIAPMMAKTIKAFKNRFSRR
# B10: Elongin A internal deletion mutant Δ521-545 (other)
# chain: MAAESALQVVEKLQARLAANPDPKKLLKYLKKLSVLPITVDILVETGVGKTVNSFRKHEQVGNFARDLVAQWKKLVPVERNNEAEDQDFEKSNSRKRPRDVPQQEEEAEGNYQESWQASGSQPYSPEHRQKKHRKLPELERPHKVAHGHERRDERKRCHKVSPPYSSDPESSDYGHVQSPPPSSPHQMYTDLSRSPEMDQEPIVSHPKPGKVHSNTFQDRLGVSHLGEHQGKGAVSQNKPHKSSHKEKRPVDARGDEKSSVMGREKSHKASSKEESRRLLSEDSAKEKLPSSVVKKEKDREGNSLKKKLSPALDVASDNHFKKPKHKDSEKIKSDKNKQSVDSVDSGRGTGDPLPRAKDKVPNNLKAQEGKVRTNSDRKSPGSLPKVEEMDMDDEFEQPTMSFESYLSYDQPRKKKKKVVKTSGTALGEKGLKKKDSKSTSKNLNSAQKLPKANENKSDKLQPAGAEPTRPRKVPTDVLPALPDIPLPAIQTNYRPLPSLELISSFQPKRKAFSSPQEEEKMMTLHQQCIRVLKNNIDSIFEVGGVPYSVLEPVLERCTPDQLYRIEECNHVLIEETDQLWKVHCHRDFKEERPEEYESWREMYLRLQDAREQRLRLLTNNIRSAHANKPKGRQAKMAFVNSVAKPPRDVRRRQEKFGTGGAAVPEKVRIKPAPYTTGSSHVPASNSSSSFHSSPEELAYEGPSTSSAHLAPVASSSVSYDPRKPAVKKIAPMMAKTIKAFKNRFSRR
# B11: Elongin A internal deletion mutant Δ441-480 (other)
# chain: MAAESALQVVEKLQARLAANPDPKKLLKYLKKLSVLPITVDILVETGVGKTVNSFRKHEQVGNFARDLVAQWKKLVPVERNNEAEDQDFEKSNSRKRPRDVPQQEEEAEGNYQESWQASGSQPYSPEHRQKKHRKLPELERPHKVAHGHERRDERKRCHKVSPPYSSDPESSDYGHVQSPPPSSPHQMYTDLSRSPEMDQEPIVSHPKPGKVHSNTFQDRLGVSHLGEHQGKGAVSQNKPHKSSHKEKRPVDARGDEKSSVMGREKSHKASSKEESRRLLSEDSAKEKLPSSVVKKEKDREGNSLKKKLSPALDVASDNHFKKPKHKDSEKIKSDKNKQSVDSVDSGRGTGDPLPRAKDKVPNNLKAQEGKVRTNSDRKSPGSLPKVEEMDMDDEFEQPTMSFESYLSYDQPRKKKKKVVKTSGTALGEKGLKKKDSKSTALPDIPLPAIQTNYRPLPSLELISSFQPKRKAFSSPQEEEEAGFTGRRMNSKMQVYSGSKCAYLPKMMTLHQQCIRVLKNNIDSIFEVGGVPYSVLEPVLERCTPDQLYRIEECNHVLIEETDQLWKVHCHRDFKEERPEEYESWREMYLRLQDAREQRLRLLTNNIRSAHANKPKGRQAKMAFVNSVAKPPRDVRRRQEKFGTGGAAVPEKVRIKPAPYTTGSSHVPASNSSSSFHSSPEELAYEGPSTSSAHLAPVASSSVSYDPRKPAVKKIAPMMAKTIKAFKNRFSRR
# B12: Elongin A internal deletion mutant Δ546-565 (other)
# chain: MAAESALQVVEKLQARLAANPDPKKLLKYLKKLSVLPITVDILVETGVGKTVNSFRKHEQVGNFARDLVAQWKKLVPVERNNEAEDQDFEKSNSRKRPRDVPQQEEEAEGNYQESWQASGSQPYSPEHRQKKHRKLPELERPHKVAHGHERRDERKRCHKVSPPYSSDPESSDYGHVQSPPPSSPHQMYTDLSRSPEMDQEPIVSHPKPGKVHSNTFQDRLGVSHLGEHQGKGAVSQNKPHKSSHKEKRPVDARGDEKSSVMGREKSHKASSKEESRRLLSEDSAKEKLPSSVVKKEKDREGNSLKKKLSPALDVASDNHFKKPKHKDSEKIKSDKNKQSVDSVDSGRGTGDPLPRAKDKVPNNLKAQEGKVRTNSDRKSPGSLPKVEEMDMDDEFEQPTMSFESYLSYDQPRKKKKKVVKTSGTALGEKGLKKKDSKSTSKNLNSAQKLPKANENKSDKLQPAGAEPTRPRKVPTDVLPALPDIPLPAIQTNYRPLPSLELISSFQPKRKAFSSPQEEEEAGFTGRRMNSKMQVYSGSKCAYLPFEVGGVPYSVLEPVLERCTPDQLYRIEECNHVLIEETDQLWKVHCHRDFKEERPEEYESWREMYLRLQDAREQRLRLLTNNIRSAHANKPKGRQAKMAFVNSVAKPPRDVRRRQEKFGTGGAAVPEKVRIKPAPYTTGSSHVPASNSSSSFHSSPEELAYEGPSTSSAHLAPVASSSVSYDPRKPAVKKIAPMMAKTIKAFKNRFSRR
# Molecular target: wild type Elongin B (rat, UniProt P62870)
# Test: refolded with wild type Elongin B; TSK DEAE-NPR HPLC, SDS-PAGE, silver staining
# Description: Figure 10A: FIG. 10A. […] Aliquots of the indicated column fractions were analyzed by SDS-PAGE, and proteins were visualized by silver staining. Figure 10B: FIG. 10B. N-terminal, C-terminal, and internal Elongin C deletion mutants were assayed for their abilities to form Elongin BC complexes as described.
# ~6 µg of Elongin B was mixed with ~6 µg of either wild type or mutant Elongin C and diluted 5-fold with 40 mM Hepes-NaOH (pH 7.9), 100 mM KCl, 2 mM DTT, 50 µM ZnSO_4, 0.1 mM EDTA, and 10% (v/v) glycerol. After incubation for 90 min on ice, the mixtures were dialyzed at 4° C. overnight against 40 mM Tris-HCl (pH 7.9), 0.1 mM EDTA, 10% (v/v) glycerol, and 40 mM KCl. Following dialysis, the mixtures were centrifuged at 60,000×g for 15 min at 4° C. The resulting supernatants were applied to TSK DEAE-NPR columns (35 mm×4.6 mm, Toso-Haas) pre-equilibrated in 40 mM Tris-HCl (pH 7.9), 0.1 mM EDTA, 1 mM DTT, 10% (v/v) glycerol, and 40 mM KCl and fractionated using a SMART microchromatography system (Pharmacia) at 8° C. The columns were eluted at 0.3 ml/min with a 3 ml linear gradient from 0.04 to 0.5M KCl in 40 mM Tris-HCl (pH 7.9), 0.1 mM EDTA, 1 mM DTT, and 10% (v/v) glycerol. Aliquots of each column fraction were analyzed by 10% Tris-Tricine SDS-polyacrylamide gel electrophoresis, and the proteins were visualized by silver staining.
row,Binder,binding result
1,B1,binds
2,B2,binds
3,B3,binds
4,B4,binds
5,B5,binds
6,B6,binds

# Molecular target: T1, Elongin BC complex (wild type rat Elongin B and C) (rat, UniProt P62870)
# T1 chain 1: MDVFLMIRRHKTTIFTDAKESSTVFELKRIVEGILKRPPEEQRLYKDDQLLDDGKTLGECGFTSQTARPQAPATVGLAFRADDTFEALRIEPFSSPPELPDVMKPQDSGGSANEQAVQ
# T1 chain 2: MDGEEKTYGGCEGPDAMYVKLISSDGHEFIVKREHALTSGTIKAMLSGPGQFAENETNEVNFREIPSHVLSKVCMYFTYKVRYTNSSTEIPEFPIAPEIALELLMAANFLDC
# Test: refolded with wild type Elongin B and C; TSK SP-NPR HPLC, SDS-PAGE, silver staining
row,Binder,binding result
1,B7,binds
2,B8,no binding
3,B9,no binding
4,B10,binds
5,B11,binds
6,B12,no binding

# From patent US6084068, “Elongin A and C functional domains” (Oklahoma Medical Research Foundation, dated 2000)
